# Literature values, collected in PMC3669279.
# pKd: −log10 of the molar value. Like-named read-outs stand apart in the source and are kept apart here.
# Columns and labels:
# [1] = target: protective antigen (PA) (Bacillus anthracis) (UniProt P13423)
# [2] = target: protective antigen (PA) (Bacillus anthracis) (UniProt P13423); remark: listed apart in the source
substance,measurement,setting,value
edema factor (EF) (from UniProt P40136),pKd,[1],9.00
lethal factor (LF) (from UniProt P15917),pKd,[2],9.00
